Assay results published in article PMC6698841.
Read-outs that look alike come from different tables or passages of the source.

What was measured:
[1] = target: Variant 1051 (control; L234A/L235A on both heavy chains) (human); experiment: SPR; ProteOn XPR36, 25 °C; 10 mM HEPES, 150 mM NaCl, 3.4 mM EDTA, 0.05% Tween 20, pH 7.4; trastuzumab variants captured (approx. 500 RU) on amine-coupled recombinant HER-2 (GLM chip); FcγRs injected as analyte, five concentrations in 3-fold dilution; Equilibrium Fit model, mean of two or three runs
[2] = target: Control Rituximab v1261 (anti-CD20 rituximab with heterodimerising CH3 mutations, no CH2 mutations) (human); experiment: SPR; ProteOn XPR36, 25 °C; 10 mM HEPES, 150 mM NaCl, 3.4 mM EDTA, 0.05% Tween 20, pH 7.4; rituximab variants captured on amine-coupled goat anti-human Fc; FcγRs injected as analyte, five concentrations in 3-fold dilution; Equilibrium Fit model; ratios against homodimeric trastuzumab WT
[3] = target: Variant 791 (trastuzumab with heterodimerising CH3 mutations only, no CH2 mutations) (human); experiment: SPR; ProteOn XPR36, 25 °C; 10 mM HEPES, 150 mM NaCl, 3.4 mM EDTA, 0.05% Tween 20, pH 7.4; trastuzumab variants captured (approx. 500 RU) on amine-coupled recombinant HER-2 (GLM chip); FcγRs injected as analyte, five concentrations in 3-fold dilution; Equilibrium Fit model, mean of two or three runs
[4] = target: Control Rituximab v1261 (anti-CD20 rituximab with heterodimerising CH3 mutations, no CH2 mutations) (human); experiment: SPR; ProteOn XPR36, 25 °C; 10 mM HEPES, 150 mM NaCl, 3.4 mM EDTA, 0.05% Tween 20, pH 7.4; rituximab variants captured on amine-coupled goat anti-human Fc; FcγRs injected as analyte, five concentrations in 3-fold dilution; Equilibrium Fit model; ratios against homodimeric trastuzumab WT; remark: listed apart in the source
[5] = target: Variant 1051 (control; L234A/L235A on both heavy chains) (human); experiment: SPR; ProteOn XPR36, 25 °C; 10 mM HEPES, 150 mM NaCl, 3.4 mM EDTA, 0.05% Tween 20, pH 7.4; trastuzumab variants captured (approx. 500 RU) on amine-coupled recombinant HER-2 (GLM chip); FcγRs injected as analyte, five concentrations in 3-fold dilution; Equilibrium Fit model, mean of two or three runs; remark: listed apart in the source
[6] = target: Variant 791 (trastuzumab with heterodimerising CH3 mutations only, no CH2 mutations) (human); experiment: as above; remark: listed apart in the source

Chain of Control Rituximab v1261 (anti-CD20 rituximab with heterodimerising CH3 mutations, no CH2 mutations) (human) (heavy, as listed by the source, chain 1 of 2): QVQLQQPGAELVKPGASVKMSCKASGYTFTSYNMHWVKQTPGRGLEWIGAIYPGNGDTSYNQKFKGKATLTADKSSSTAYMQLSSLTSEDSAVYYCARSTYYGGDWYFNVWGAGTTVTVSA
Chain of Control Rituximab v1261 (anti-CD20 rituximab with heterodimerising CH3 mutations, no CH2 mutations) (human) (light, as listed by the source, chain 2 of 2): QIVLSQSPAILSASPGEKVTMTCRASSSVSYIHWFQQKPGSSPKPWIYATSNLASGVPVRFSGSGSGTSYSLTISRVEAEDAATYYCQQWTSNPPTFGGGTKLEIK

Kamut/KaWT (WT: homodimeric trastuzumab) [1]	Kamut/KaWT (WT: homodimeric trastuzumab) [2]	Kamut/KaWT (WT: homodimeric trastuzumab) [3]	Kamut/KaWT (WT: homodimeric trastuzumab) [4]	Kamut/KaWT (WT: homodimeric trastuzumab) [5]	Kamut/KaWT (WT: homodimeric trastuzumab) [6]	Molecule
0.01						FcγR 1a (CD64) (from UniProt P12314 16-374) (receptor)
0.06	1.9	1.7				FcγR 2aH (from UniProt P12318 34-317) (receptor)
0.52	1.9					FcγR 2b (from UniProt P31994 43-310) (receptor)
0.29	1.4					FcγR 3aF (from UniProt P08637 17-254) (receptor)
			1.5	0.06	1.7	FcγR 2aR, P12318 34-317 (receptor, modifications not checked) QAAAPPKAVLKLEPPWINVLQEDSVTLTCQGARSPESDSIQWFHNGNLIPTHTQPSYRFKANNNDSGEYTCQTGQTSLSDPVHLTVLSEWLVLQTPHLEFQEGETIMLRCHSWKDKPLVKVTFFQNGKSQKFSRLDPTFSIPQANHSHSGDYHCTGNIGYTLFSSKPVTITVQVPSMGSSSPMG
